Mean lifetime of the connection and koff data for two substances are collected here from article PMC7870652.

Assay [1] concerns the target truncated CDH23 EC1-5 dimer fusion protein (two EC1-5 strands) (mouse). Kind of assay: BLI; CDH23 biotinylated on its SNAPtag and immobilised on streptavidin-coated PEG-biotin aminopropylsilane sensors; 10–300 nM PCDH15 in solution; TBS-Tween + Ca^2+ buffer, 2 mM Ca^2+; traces of a drift sensor and of PCDH15 lacking EC1-2 subtracted; dissociation fitted with a single exponential; on-rates measured at 300 nM PCDH15 (effective on-rate); Octet Red384.

Assay [2] deals with CDH23 EC1-5/EC3-5 single-bond fusion protein (asymmetric Fc heterodimer with one EC1-2 binding domain) (mouse) (UniProt Q99PF4). Kind of assay: single-molecule force spectroscopy (optical tweezers); single-bond EC1-5/EC3-5 proteins, each on a DNA tether on a streptavidin bead in a dual-beam optical trap; 50 µM Ca2+, TBS buffer, room temperature; Bell-Evans fit of most-probable unbinding forces against loading rate, constants extrapolated to zero force.

Turning to “truncated PCDH15 EC1-5 dimer fusion protein (two EC1-5 strands) (Fc fusion)”, the mean lifetime of the connection at zero force in assay [1] is 27.1 s.
The term koff denotes the rate constant with which the complex falls apart. As for “PCDH15 EC1-5/EC3-5 single-bond fusion protein (asymmetric Fc heterodimer with one EC1-2 binding domain) (from UniProt Q99PJ1-1 27-1943; Q99PJ1-1 27-1943) (Fc fusion)”, the dissociation rate constant (koff) in assay [2] was 1.2 s⁻¹.
